Data taken from IntAct's records for PubMed 24003221.

B1: Tyrosine-protein phosphatase non-receptor type 1 (Homo sapiens), P18031 (parent)
chain: MEMEKEFEQIDKSGSWAAIYQDIRHEASDFPCRVAKLPKNKNRNRYRDVSPFDHSRIKLHQEDNDYINASLIKMEEAQRSYILTQGPLPNTCGHFWEMVWEQKSRGVVMLNRVMEKGSLKCAQYWPQKEEKEMIFEDTNLKLTLISEDIKSYYTVRQLELENLTTQETREILHFHYTTWPDFGVPESPASFLNFLFKVRESGSLSPEHGPVVVHCSAGIGRSGTFCLADTCLLLMDKRKDPSSVDIKKVLLEMRKFRMGLIQTADQLRFSYLAVIEGAKFIMGDSSVQDQWKELSHEDLEPPPEHIPPPPRPPKRILEPHNGKCREFFPNHQWVKEETQEDKDCPIKEEKGSPLNAAPYGIESMSQDTEVRSRVVGGSLRGAQAASPAKGEPSLPEKDEDHALSYWKPFLVNMCVATVLTAGAYLCYRFLFNSNT

Variants of: B1
Details: with k2c8_human KRT8, P05787
Sequence of k2c8_human KRT8, P05787 (P05787 whole entry): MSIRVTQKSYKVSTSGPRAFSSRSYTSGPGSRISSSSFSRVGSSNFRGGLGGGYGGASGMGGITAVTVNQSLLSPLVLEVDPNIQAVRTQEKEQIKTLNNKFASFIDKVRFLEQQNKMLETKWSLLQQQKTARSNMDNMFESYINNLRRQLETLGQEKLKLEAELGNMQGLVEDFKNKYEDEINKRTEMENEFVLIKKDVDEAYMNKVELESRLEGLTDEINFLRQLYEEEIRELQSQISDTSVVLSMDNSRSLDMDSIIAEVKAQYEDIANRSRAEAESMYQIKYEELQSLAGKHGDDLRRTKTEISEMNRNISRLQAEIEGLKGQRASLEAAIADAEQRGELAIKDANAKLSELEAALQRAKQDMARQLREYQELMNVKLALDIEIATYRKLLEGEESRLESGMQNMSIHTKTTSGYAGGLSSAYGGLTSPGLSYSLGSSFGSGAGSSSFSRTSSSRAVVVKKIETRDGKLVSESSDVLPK

Row | Variant | effect of a mutation on the interaction
1 | D181A | increasing interaction strength
